Experimental data published in patent US20190269788A1.

Experiments:
[1] = molecular target: soluble recombinant human IGF1R hetero-tetramere with C-terminal 10-His tag (R&D Systems catalogue number 305-GR-50) (human) (UniProt P08069); assay: SPR Biacore X100, Ln(2)/koff
[2] = molecular target: soluble recombinant human IGF1R hetero-tetramere with C-terminal 10-His tag (R&D Systems catalogue number 305-GR-50) (human) (UniProt P08069); assay: SPR Biacore X100, His-captured h-IGF1R around 600 RU, mean of four experiments

B1: hz208F2 VH3/VL3 (antibody, human IgG1, kappa, V domains shown)
VH: QVQLVQSGAEVKKPGASVKMSCKASGYTFTSYYIYWVKQAPGQGLEWLGWIWPGDGSTKYNEKFQGRVTLTADKSSNTAYMFLSSLRSEDTAVYFCASPMITPNYAMDYWGQGTLVTVSS
VL: DIQMTQSPSSLSASVGDRVTISCRASQDISKYLNWYQQKPGKAPKLLIYYTSRLHSGVPSRFSGRGSGTDYSLTISNLQPEDFATYFCQQGSTLPYTFGGGTKVEIKR
[1]
  half-life of the complex: 2 to 3 h
[2]
  Kd: 0.06 nM
